In article PMC12747932, “Crystal structures of Kif2A complexed with WDR5 reveal the structural plasticity of WIN-S7 sites” (Acta Biochimica et Biophysica Sinica, 2025):

Legend:
Experiment in all cases: ITC; peptide (approximately 1 mM) titrated into protein (0.05 mM), 20°C, Buffer E (20 mM Tris-HCl, 200 mM NaCl, pH 7.5), single binding site model, duplicate
Settings in all cases: both partners purified
[1] = biological target: human WDR5 seven tandem WD-40 domain (residues 24–334) (human, UniProt P61964 24-334)
[2] = biological target: WDR5 Y191F variant (residues 24–334) (human, UniProt P61964 24-334, Y191F)
[3] = biological target: human WDR5 seven tandem WD-40 domain (residues 24–334) (human, UniProt P61964 24-334); remark: listed apart in the source

| Binder | Kd [1] [µM] | dH [1] [kcal/mol] | stoichiometry N [1] | Kd [2] [µM] | dH [2] [kcal/mol] | stoichiometry N [2] | Kd [3] [µM] | dH [3] [kcal/mol] | stoichiometry N [3] |
| --- | --- | --- | --- | --- | --- | --- | --- | --- | --- |
| GSARARPSQ (also called wild-type Kif2A; source: synthetic peptide (GenScript)) [Kif2A 114–122 peptide] | 0.78 | -15.7 ± 0.13 | 0.91 | 0.96 | -9 ± 0.08 | 1.27 |  |  |  |
| GSARARPGQ (also called Kif2A^S121G; source: synthetic peptide (GenScript)) [Kif2A 114–122 (S121G) peptide] | 3.72 | -10.6 ± 0.14 | 0.94 |  |  |  |  |  |  |
| GSARARPAQ [Kif2A S121A peptide] |  |  |  |  |  |  | 2.16 | -13 ± 0.12 | 0.97 |
| GSARARP (also called truncated Kif2A; source: synthetic peptide (GenScript)) [Kif2A 114–120 peptide] | 6.71 | -9.2 ± 0.11 | 1.19 |  |  |  |  |  |  |
